± gives the standard deviation of the averaged measurements.
B1: library; a variant is named by its letters at N, in order (parent)
chain: GAGACCGCAACTGAAAAGTTGTGGNNNNNATAGTGAGTCGCTGCCTGCAAAGACACAACT

Variants of: B1
Experiment: ligation selection enrichment (abundance after / before one-round selection) (fold); higher = more template-directed ligation activity
Settings: with T7Psub CACGGAUGCUAAUACGACUCACUAUA; MgCl2 25 mM; 42 °C; 4 h; pH 8.5
Procedure, shortened: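 Two independent reactions combined a T7-transcribed RNA ligase library with five randomized core positions (0.75 μM) and RNA substrate (6 μM) in 50 mM EPPS pH 8.5, 25 mM MgCl2, run for 4 h at 42 °C. The ligated products were sequenced on a MiSeq, and only reads with quality ≥30 at all randomized positions were counted. Enrichment is the abundance after ligation divided by the abundance before ligation.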

Variant | ligation selection enrichment
GAGACCGCAACTGAAAAGTTGTGGCCAAGATAGTGAGTCGCTGCCTGCAAAGACACAACT [CCAAG] | 0.349 ± 0.024
GAGACCGCAACTGAAAAGTTGTGGTCAATATAGTGAGTCGCTGCCTGCAAAGACACAACT [TCAAT] | 6.44 ± 2.6
GAGACCGCAACTGAAAAGTTGTGGGCAATATAGTGAGTCGCTGCCTGCAAAGACACAACT [GCAAT] | 4.77 ± 1.7
GAGACCGCAACTGAAAAGTTGTGGACAATATAGTGAGTCGCTGCCTGCAAAGACACAACT [ACAAT] | 3.6 ± 0.37
GAGACCGCAACTGAAAAGTTGTGGCCAATATAGTGAGTCGCTGCCTGCAAAGACACAACT [CCAAT] | 3.42 ± 0.96
GAGACCGCAACTGAAAAGTTGTGGCCACAATAGTGAGTCGCTGCCTGCAAAGACACAACT [CCACA] | 0.0899 ± 0.017
GAGACCGCAACTGAAAAGTTGTGGGCACAATAGTGAGTCGCTGCCTGCAAAGACACAACT [GCACA] | 0.175 ± 0.0085
GAGACCGCAACTGAAAAGTTGTGGACACAATAGTGAGTCGCTGCCTGCAAAGACACAACT [ACACA] | 0.134 ± 0.024
GAGACCGCAACTGAAAAGTTGTGGTCACAATAGTGAGTCGCTGCCTGCAAAGACACAACT [TCACA] | 0.115 ± 0.057
GAGACCGCAACTGAAAAGTTGTGGCCACCATAGTGAGTCGCTGCCTGCAAAGACACAACT [CCACC] | 0.0951 ± 0.0078
GAGACCGCAACTGAAAAGTTGTGGTCACCATAGTGAGTCGCTGCCTGCAAAGACACAACT [TCACC] | 0.159 ± 0.0071
GAGACCGCAACTGAAAAGTTGTGGGCACCATAGTGAGTCGCTGCCTGCAAAGACACAACT [GCACC] | 0.153 ± 0.024
GAGACCGCAACTGAAAAGTTGTGGACACCATAGTGAGTCGCTGCCTGCAAAGACACAACT [ACACC] | 0.132 ± 0.0051
GAGACCGCAACTGAAAAGTTGTGGGCACGATAGTGAGTCGCTGCCTGCAAAGACACAACT [GCACG] | 0.521 ± 0.053
GAGACCGCAACTGAAAAGTTGTGGACACGATAGTGAGTCGCTGCCTGCAAAGACACAACT [ACACG] | 0.497 ± 0.035
GAGACCGCAACTGAAAAGTTGTGGCCACGATAGTGAGTCGCTGCCTGCAAAGACACAACT [CCACG] | 0.415 ± 0.075
GAGACCGCAACTGAAAAGTTGTGGTCACGATAGTGAGTCGCTGCCTGCAAAGACACAACT [TCACG] | 0.341 ± 0.018
GAGACCGCAACTGAAAAGTTGTGGGCACTATAGTGAGTCGCTGCCTGCAAAGACACAACT [GCACT] | 0.555 ± 0.18
GAGACCGCAACTGAAAAGTTGTGGACACTATAGTGAGTCGCTGCCTGCAAAGACACAACT [ACACT] | 0.474 ± 0.18
GAGACCGCAACTGAAAAGTTGTGGTCACTATAGTGAGTCGCTGCCTGCAAAGACACAACT [TCACT] | 0.427 ± 0.28
GAGACCGCAACTGAAAAGTTGTGGCCACTATAGTGAGTCGCTGCCTGCAAAGACACAACT [CCACT] | 0.416 ± 0.15
GAGACCGCAACTGAAAAGTTGTGGTCAGAATAGTGAGTCGCTGCCTGCAAAGACACAACT [TCAGA] | 0.474 ± 0.043
GAGACCGCAACTGAAAAGTTGTGGGCAGAATAGTGAGTCGCTGCCTGCAAAGACACAACT [GCAGA] | 0.363 ± 0.026

Variant | ligation selection enrichment
GAGACCGCAACTGAAAAGTTGTGGACAGAATAGTGAGTCGCTGCCTGCAAAGACACAACT [ACAGA] | 0.307 ± 0.022
GAGACCGCAACTGAAAAGTTGTGGCCAGAATAGTGAGTCGCTGCCTGCAAAGACACAACT [CCAGA] | 0.297 ± 0.02
GAGACCGCAACTGAAAAGTTGTGGTCAGCATAGTGAGTCGCTGCCTGCAAAGACACAACT [TCAGC] | 0.153 ± 0.017
GAGACCGCAACTGAAAAGTTGTGGGCAGCATAGTGAGTCGCTGCCTGCAAAGACACAACT [GCAGC] | 0.14 ± 0.021
GAGACCGCAACTGAAAAGTTGTGGACAGCATAGTGAGTCGCTGCCTGCAAAGACACAACT [ACAGC] | 0.135 ± 0.011
GAGACCGCAACTGAAAAGTTGTGGCCAGCATAGTGAGTCGCTGCCTGCAAAGACACAACT [CCAGC] | 0.108 ± 0.022
GAGACCGCAACTGAAAAGTTGTGGTCAGGATAGTGAGTCGCTGCCTGCAAAGACACAACT [TCAGG] | 0.337 ± 0.062
GAGACCGCAACTGAAAAGTTGTGGACAGGATAGTGAGTCGCTGCCTGCAAAGACACAACT [ACAGG] | 0.217 ± 0.025
GAGACCGCAACTGAAAAGTTGTGGGCAGGATAGTGAGTCGCTGCCTGCAAAGACACAACT [GCAGG] | 0.189 ± 0.024
GAGACCGCAACTGAAAAGTTGTGGCCAGGATAGTGAGTCGCTGCCTGCAAAGACACAACT [CCAGG] | 0.178 ± 0.009
GAGACCGCAACTGAAAAGTTGTGGGCAGTATAGTGAGTCGCTGCCTGCAAAGACACAACT [GCAGT] | 0.0918 ± 0.00069
GAGACCGCAACTGAAAAGTTGTGGACAGTATAGTGAGTCGCTGCCTGCAAAGACACAACT [ACAGT] | 0.175 ± 0.012
GAGACCGCAACTGAAAAGTTGTGGTCAGTATAGTGAGTCGCTGCCTGCAAAGACACAACT [TCAGT] | 0.161 ± 0.087
GAGACCGCAACTGAAAAGTTGTGGCCAGTATAGTGAGTCGCTGCCTGCAAAGACACAACT [CCAGT] | 0.107 ± 0.041
GAGACCGCAACTGAAAAGTTGTGGTCATAATAGTGAGTCGCTGCCTGCAAAGACACAACT [TCATA] | 0.274 ± 0.026
GAGACCGCAACTGAAAAGTTGTGGGCATAATAGTGAGTCGCTGCCTGCAAAGACACAACT [GCATA] | 0.204 ± 0.0065
GAGACCGCAACTGAAAAGTTGTGGCCATAATAGTGAGTCGCTGCCTGCAAAGACACAACT [CCATA] | 0.14 ± 0.025
GAGACCGCAACTGAAAAGTTGTGGACATAATAGTGAGTCGCTGCCTGCAAAGACACAACT [ACATA] | 0.136 ± 0.019
GAGACCGCAACTGAAAAGTTGTGGGCATCATAGTGAGTCGCTGCCTGCAAAGACACAACT [GCATC] | 0.168 ± 0.016
GAGACCGCAACTGAAAAGTTGTGGTCATCATAGTGAGTCGCTGCCTGCAAAGACACAACT [TCATC] | 0.166 ± 0.002
GAGACCGCAACTGAAAAGTTGTGGACATCATAGTGAGTCGCTGCCTGCAAAGACACAACT [ACATC] | 0.138 ± 0.056
GAGACCGCAACTGAAAAGTTGTGGCCATCATAGTGAGTCGCTGCCTGCAAAGACACAACT [CCATC] | 0.121 ± 0.0018

— the supplement of paper PMC10219994
